From paper PMC11643329, “DNA sequence-induced solid phase transition as a solution to the genome folding paradox” (Research Square, 2024)

T1: full length Halo-Ldb1 (Ldb1 1-411) (UniProt P70662 1-411, Halo-tag ligand Coumarin dye on the Halo tag (incubated at 1:10 molar equivalent))
T1 construct: Construct order as printed: 6x His - Halo tag - Ldb1 1-411 - stop codon in pET-duet; The EMSA legend says only 'full-length Ldb1'; This is the only full-length Ldb1 construct that the methods describe; also called full length Ldb1; FL Halo-Ldb1; source: E. coli BL21, purified (HisTrap, dialysis); not shown: Halo tag, N-terminal, kept
T1 sequence (looked up): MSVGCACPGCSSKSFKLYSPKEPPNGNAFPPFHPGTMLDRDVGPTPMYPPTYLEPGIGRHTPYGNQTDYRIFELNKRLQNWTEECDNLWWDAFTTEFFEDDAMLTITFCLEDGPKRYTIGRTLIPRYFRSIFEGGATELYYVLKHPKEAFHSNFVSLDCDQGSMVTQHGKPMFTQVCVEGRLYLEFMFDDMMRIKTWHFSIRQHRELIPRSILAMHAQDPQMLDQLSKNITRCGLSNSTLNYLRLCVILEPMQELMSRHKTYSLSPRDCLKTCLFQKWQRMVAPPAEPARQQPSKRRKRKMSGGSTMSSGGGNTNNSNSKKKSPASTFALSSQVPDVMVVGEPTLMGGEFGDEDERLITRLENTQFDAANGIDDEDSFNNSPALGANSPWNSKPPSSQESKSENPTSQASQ

B1: truncated Sumo-Lhx2 (Lhx2 1-350, lacks the C-terminal intrinsically disordered region) (domain or fragment, UniProt Q9Z0S2 1-350, looked up)
chain: MLFHSLSGPEVHGVIDEMDRRAKSEAPAISSAIDRGDTETTMPSISSDRAALCAGCGGKISDRYYLLAVDKQWHMRCLKCCECKLNLESELTCFSKDGSIYCKEDYYRRFSVQRCARCHLGISASEMVMRARDLVYHLNCFTCTTCNKMLTTGDHFGMKDSLVYCRLHFEALLQGEYPAHFNHADVAAAAAAAAAAKSAGLGSAGANPLGLPYYNGVGTVQKGRPRKRKSPGPGADLAAYNAALSCNENDAEHLDRDQPYPSSQKTKRMRTSFKHHQLRTMKSYFAINHNPDAKDLKQLAQKTGLTKRVLQVWFQNARAKFRRNLLRQENTGVDKTSDATLQTGTPSGPA
notes: Lhx2, LIM-homeodomain transcription factor, residues 1-350 followed by a stop codon; Construct order as printed: 6xHis - Sumo - strep II - Lhx2 in pET28b; also called truncated Lhx2; source: E. coli BL21, purified (HisTrap, HiTrap Heparin, dialysis); not shown: Sumo, N-terminal, kept

Columns and labels:
[1] = molecular target: B1; assay: native gel or EMSA; purified proteins mixed with 2000 fmol ATTO-488 labelled composite motif DNA probe; Ldb1 added to DNA-bound Lhx2 and/or Ebf1; 10 mM HEPES, 150 mM NaCl, 5% glycerol, 0.5% NP-40, 1 mg/mL BSA, 0.1 mg/mL poly dI-dC; 30 minutes at 4C; 6% native gel; conditions: both partners purified
[2] = molecular target: T1, full length Halo-Ldb1 (Ldb1 1-411); assay: as above; conditions: both partners purified

Row | binding result [1] | binding result [2] | Binder
1 | binds |  | Ldb1 Lim interaction domain (Ldb1-LID), Sumo-Ldb1 320-375 (domain or fragment, UniProt P70662 320-375, looked up, Construct order as printed: 6x His - Sumo - Ldb1 320-375 - stop codon in pET28; also called truncated Ldb1 protein; Sumo-Ldb1-LID domain; source: E. coli BL21, purified (HisTrap, Superdex 75 size exclusion); not shown: Sumo, N-terminal, kept) KKKSPASTFALSSQVPDVMVVGEPTLMGGEFGDEDERLITRLENTQFDAANGIDDE
2 |  | binds | B1
